# Assay: yeast display, Sf9 membrane polyspecificity reagent, FACS + sequencing; frameworks hold sequencing errors
# Outline: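 In a synthetic yeast display library (Saccharomyces cerevisiae BJ5465), nanobody expression was induced with galactose for 36–48 hours. FACS gates were set low and high (top ~1%) using anti-HA fluorescence for expression and streptavidin fluorescence for binding of the Sf9 membrane reagent. Each polyreactivity label is drawn from the gate of origin.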
row,Sequence,polyreactivity (PSR sort gate)
1,QVQLVESGGGLVQAGGSLRLSCAASGSIFSSYAMGWYRQAPGKERELVATITSSGGSTYYADSVKGRFTISRDNAKNTVYLQMNSLKPEVTAVYYCAASYHTSYSLRSYYYWGQGTQVTVSS,low polyreactivity
2,QVQLVESGGGLVQAGGSLRLSCAASGSIFSSYAMGWYRQAPGKERELVAVINSGGSTNYADSVKGRFTISRDNAKNSVYVQMKSLKPEDTAVYYCNAYGGTFHNTAAEFDYWRQGTQVTVSS,low polyreactivity
3,QVQLVESGGGLVQAGGSLRLSCAASGSIFSSYGMGWYRQAPGKERELVATITGSGGSTYYSDSVKGRLTISRVNAKNTVYLQMNSLKPEDTAVYYCATRLGWFVKYYTGRYYYWGQGTQVTVSS,high polyreactivity
4,QVQLVESGGGLVQAGGSLRLSCAASGSIFSTNAIGGYRQAPGTQRELVAVITGIGGITYYADSVKGRFTISRDNAKKTVYLQRNSLKPDDTAVYYCADDPISEFSWGVKDRYDYWGQGTQVTVSS,low polyreactivity
5,QVQLVESGGGLVQAGGSLRLSCAASGSIFSTNDRGWYRQAPGKERELVAAISVSGGSTYYADSVKGRFTISRDNAKNTVYLQMNSLKPEDTAVYYCNADYTRGTMYYWGQGTQVTVSS,low polyreactivity
6,QVQLVESGGGLVQAGGSLRLSCAASGSIFSTYAIVWYRQAPGKERELVAAISVSGGRTYYADSVKGRFTISRDNAKYTVYLQMNSLKPEDTAVYYCNAYPFWRDYDYWGQGTQVTVSS,high polyreactivity
7,QVQLVESGGGLVQAGGSLRLSCAASGSIFSTYAMGWYRQAPVKERELVAAINSGDSTSYADSVKGRFTISRDNAKNTVYLQMNSLKPEDTAVYYCAAKTGGYWYLRRTARYESWGQGTQVTVSS,low polyreactivity
8,QVQLVESGGGLVQAGGSLRLSCAASGSIFSTYTMGWYRQAPGTERELVAAITRSGGSTYNADSVKGRFTISRDNAKNTVYLQMNSLKPEDTAVYYCAARWKFPSSFYYWGQGTQVTVSS,high polyreactivity
9,QVQLVESGGGLVQAGGSLRLSCAASGSIFSVNAMGWYRQAPGTEREFVASINFRGGRTYYADSVKGRFRISRDNAKNTVYLQMNCLKPEDTADYYCAAVITLTDTGYGPSFRVFYWGQGTQVTVSS,high polyreactivity
10,QVQLVESGGGLVQAGGSLRLSCAASGSIFSVNTMGWYRQAPGKERELVAAISGSGGSTYYADSVKGRFTISRDNATNPVYLQMNSLKPEETAVYYCAKVYRRGAGYNYWGQGTQVTVSS,high polyreactivity
11,QVQLVESGGGLVQAGGSLRLSCAASGSIFSVNTMGWYRQAPGKQRELVAAISESGDGTYYADSVKGRFTISRDNAKNTVYLQMNSLKPEDTAVYYCNADRQKGGGYYPHEFDYWGQGTQVTVSS,low polyreactivity
12,QVQLVESGGGLVQAGGSLRLSCAASGSIFSVYAMGWYRQAPGKERELVAAITSGTSTYADSVKGRFTISRDNAKNTVYLQMNSLKPEDTAVYYCAAESGSPGYYYWGQGTQVTVSS,low polyreactivity
13,QVQLVESGGGLVQAGGSLRLSCAASGSIFSVYDMGWYRQAPGKERELVAAISRSGGSTYYADSVKGRFTISRDNAKNTVYLQRNSLKPEDTAVYYCNAVRRTGGHGDYWGQGTQVTVSS,high polyreactivity
14,QVQLVESGGGLVQAGGSLRLSCAASGSIFSWNAMGWYRPAPGKEREFVAAISYGSTSTTYADSVKGRFTISRDNAKNTVYLQMNSLKPEDTAVYYCAAVPRRSGHQRWGATYYYWGQGTQVTVSS,high polyreactivity
15,QVQLVESGGGLVQAGGSLRLSCAASGSIFSWNAMGWYRQAPGKERELVAAISTRGSSTYYADSVKGRFTISRDNAKNTVYLQMNSLKPEDTAVYYCNAARTFPFYWGLRGSQRYDYWGQGTQVTVSS,high polyreactivity
16,QVQLVESGGGLVQAGGSLRLSCAASGSIFSYNAMGGYRQAPGKERELVAGITSGASTNYADSVKGRFTISRDNAKNTVYLQMNSLKPEDTAVYYCNADDIFRPRDDLYDYWGQGTQVTVSS,low polyreactivity
17,QVQLVESGGGLVQAGGSLRLSCAASGSIFSYNAMGWYRQAPGKEREFVAAITSSGTRTYYADSVKGRFTISRDNAKNTVYLQMNSLKPEDTAVYYCAAKPSRYGIGFYWGQGTQVTVSS,high polyreactivity
18,QVQLVESGGGLVQAGGSLRLSCAASGSIFSYNAMGWYRQAPGKERELVAAISWSGGSTYYADSVKGRFTISRDNAKNTVYLQMNSLKPEDTAVYYCNAYRYRQSSSDKYGYWGQGTQVTVSS,high polyreactivity
19,QVQLVESGGGLVQAGGSLRLSCAASGSIFSYNAMGWYRQAPGKERELVAAITWSGGSTYYADSVKGRFTISRDNAKNTVYLQMNSLKPEDTAVYYCAAVYDDYSTSVGYSPEYDYWGQGTQVTESS,high polyreactivity
20,QVQLVESGGGLVQAGGSLRLSCAASGSIFSYNGMGWYRQAPGKERELVATISASSVTTYYADSVKGRFTFSRDNAMNTVYLQMNSLKPEDTAVYYCARDAYSVYYYVFLHWEYDYWGQGTQVTVSS,high polyreactivity
21,QVQLVESGGGLVQAGGSLRLSCAASGSIFSYYAMGWYRQAPAKERELVAAISQNACSTYYADSVKGRFTISRDNAKNTVYLQMNSLKPEDTAVYYCNAYSVYVRGEYWGQGTQVNVSS,high polyreactivity
22,QVQLVESGGGLVQAGGSLRLSCAASGSIFSYYAMGWYRQAPGKERELVAAITTSGGSTYYADSVKGRVTISRDNAKNTVYLQMNSLKPEDTAVYYCAAETAWYITTGYDYWGQGTQVTVSS,low polyreactivity

row,Sequence,polyreactivity (PSR sort gate)
1,QVQLVESGGGLVQAGGSLRLSCAASGSIFSYYAMGWYRQAPGKERELVAAITVRGGSTYYADSVKGRFTISRDNAKNTVYFQMNSLKPEDTAVYYCAADWLDESFSYGPYYYWGQGTQVTVSS,low polyreactivity
2,QVQLVESGGGLVQAGGSLRLSCAASGSIFSYYAMGWYRQAPGKERELVATITSSGSTYADSVKGRFTISRDNAKNTVYLQMNSLKPEDTAVYYCNADSGYSEYWGVDVAYDYWGQGTQVTVSS,low polyreactivity
3,QVQLVESGGGLVQAGGSLRLSCAASGSIFSYYAMGWYRQAPGKERVLVAAIRRGGSTNYADSVKGRFTISRDNAKNTVYLQLNSLKPEDTAVYYCAASLGWRFYYWGQGTQVTVSS,high polyreactivity
4,QVQLVESGGGLVQAGGSLRLSCAASGSIFSYYDMGWYRQAPGKERELVAAIRWSGGITYADSVKGRFTISRDNAKNTVYLEMNSLKPEDTAVYYCAADQYYRSDYYYWGQGTQVTVSS,low polyreactivity
5,QVQLVESGGGLVQAGGSLRLSCAASGSIFSYYTIGWYRKAPGKERELVAAISFSGTSTYYADSVKGRFTISRDNDKNTVYLQMNSLKPEDTAVYFCAKRALYYPTYPKYDTYNRYYWGQGTQGTVSS,high polyreactivity
6,QVQLVESGGGLVQAGGSLRLSCAASGSIFSYYTMGWYRQAPGKERELVAAITKSGGSTYYADSVKGRFTISRDNAKNTVYLQMNSLKPEDTAVYYCAASYGGYPKGNYWGQGTQVTVSS,high polyreactivity
7,QVQLVESGGGLVQAGGSLRLSCAASGSIFTAYAMGWYRQAPGKEMELVAAITYNGGSTYYADSVKGRFTISRDNAKNTVYLQMNSLKPEDTAVYYCAARYWFYYDLYDYWGQGTQVTVSS,low polyreactivity
8,QVQLVESGGGLVQAGGSLRLSCAASGSIFTDNVMGWYRQAPGKERELVAAITYSAASTYYADSVKGRFTISRDNAKNTVYLQMNSLKPEDTAVYYCNARIIYRKWLFRSGTFNYWGQGTQVTVSS,low polyreactivity
9,QVQLVESGGGLVQAGGSLRLSCAASGSIFTDYAMGWYRQAPGKERELVAAITSSGGSTYYADSVKGRFTISRDNAKNTVYLQMNSLKPEDTAVYYCDADRITIYDYWGQGTQVTVSS,low polyreactivity
10,QVQLVESGGGLVQAGGSLRLSCAASGSIFTDYTMGWYRQAPGKERELVAAISWIGDSTDYADSVKGRFTISRDNAKNTVYLQMNSLNPEDTAVYYCAKSRAGRYNDYDYWGQGTQVTVSS,low polyreactivity
11,QVQLVESGGGLVQAGGSLRLSCAASGSIFTFYAMGWYRPAPGKERELVAAITRSGGSTYYADSVKGRFTISRDNAKNTVYLQMNSLKPEDTAVYYCAKDPSSYVTYRYYYWGQGTEVTVSS,low polyreactivity
12,QVQLVESGGGLVQAGGSLRLSCAASGSIFTFYAMGWYRQAPGKERELVAAISYGGGITYYADSVKGRFTISRDNAKISVYLQMNSLIPEDSAVYYCAADDGYYNLYFDYDFWGQGTQLTVSS,low polyreactivity
13,QVQLVESGGGLVQAGGSLRLSCAASGSIFTFYAMGWYRQAPGKERELVASITSGAGITYYADSVKGRFTISRDNAKNTVYLQMNSLKPEDTAVYYCAADWSGDFFTDGYWGQGTQVTVSS,low polyreactivity
14,QVQLVESGGGLVQAGGSLRLSCAASGSIFTFYAMGWYRQAPVKERELVAGIRWRGGTSTFYADSVKGRFTISRDNAKNTVYLQMNSLKPEDTAVYYCAAKRRTGGNGYWGQGTQVTVSS,high polyreactivity
15,QVQLVESGGGLVQAGGSLRLSCAASGSIFTGNTMGWYRQAPGNERELVAAMSRRGGRTYYADSVKGRFTISRDNAKNTVYLQMNSLKPEDPAVYYCAADGWYWTYIVEYWGQGTQVTVSS,high polyreactivity
16,QVQLVESGGGLVQAGGSLRLSCAASGSIFTHNAMGCYRQAPGKERELVAAMSSGGSTNDADSVKGRFTISRDNAKNTVYLKMNSLTPEDTAVYYCAKSIDGWYWRRRRYDYWGQGTQVTVSS,low polyreactivity
17,QVQLVESGGGLVQAGGSLRLSCAASGSIFTHYAMGWYRQAPGKERELVAGITSSGGSTYADSVKGRFTISRDNAKNTVYLQMNSLKPEDTAVYYCNADNATYFVYEFNYWGQGTQVTVSS,low polyreactivity
18,QVQLVESGGGLVQAGGSLRLSCAASGSIFTINAMGWYRQAPGIERALVAAIRSGGGTNYADSVKGRFTISRDNAKNTVYFQMNSLKPEDTAVYYCAADLWAGKYGEYDYWGQGTQVTVSS,high polyreactivity
19,QVQLVESGGGLVQAGGSLRLSCAASGSIFTINAMGWYSQAPGKERELVAALTSGGSTSYADSVKGRFTISRDIAKNTVYLQMNSLKPEDTAVYYCAADAKRFYPYRWRLYYWGQGTQVTVSS,high polyreactivity
20,QVQLVESGGGLVQAGGSLRLSCAASGSIFTLNAMGWYRQAPGKERELVAAISRSGGSTYYADSVKGRFTISRDNAKNTVYLQMNSLKPEDTAVYYCAVYVTRDSGWWLYDYWGQGTQVTVSS,high polyreactivity
21,QVQLVESGGGLVQAGGSLRLSCAASGSIFTLYAMGWYRQAPGKERELVAAITWSGGSTYYADSVKGRFTISRDNAKNTVYLQMNSLKPEDTAVYFCAKDYLAGGPWEGHVEREYDYWGQGTQVTVSS,low polyreactivity

# Source: the nanobody polyreactivity screen of Harvey et al. (2022)
